Several values for one entry are separate records, joined by “and”; a condition that tells them apart may be missing. Identical values can stand only once.
Molecular target: Chinese hamster BiP, wild type, with an N-terminal His6-tag (UK173) (Chinese hamster) (UniProt G3I8R9)
Test: SEC; 40 µM BiP with 1 mM ADP, 20 min at 24°C; SEC-3 HPLC column, 50 mM HEPES-KOH pH 7.4, 150 mM KCl, 10 mM MgCl2, 26°C; A230

stoichiometry N: 2 and 3
Substance: Chinese hamster BiP, wild type, with an N-terminal His6-tag (UK173) (from UniProt G3I8R9 19-654) (natural protein)

From article PMC7758071
